Consider 6 molecules from paper PMC4937829 (Nature structural & molecular biology, 2016).

First the molecules themselves.
B4: Spy 29-124 (wild type) (domain or fragment, Escherichia coli)
chain: SFKDLNLTDAQKQQIREIMKGQRDQMKRPPLEERRAMHDIIASDTFDKVKAEAQIAKMEEQRKANMLAHMETQNKIYNILTPEQKKQFNANFEKRLT

The target of data set [1] is B4. In words: other fluorescence titration.
Another data set has as its target T1, Spy H96L 29-124 (Escherichia coli, UniProt P77754 52-147, H96L).
T1 sequence: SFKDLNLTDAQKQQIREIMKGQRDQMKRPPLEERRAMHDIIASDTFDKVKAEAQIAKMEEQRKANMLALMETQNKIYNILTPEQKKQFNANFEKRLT
In words: crystal structure.

The data set “crystal structure” concerns the molecule itself. In words: crystal structure.
The target of data set [2] is B4. The experiment in a line: crystal structure.

B1: Im7 L18A L19A L37A H40W (natural protein, E. coli, UniProt Q03708 1-87, looked up)
chain: MELKNSISDYTEAEFVQAAKEIEKENVAATDDVLDVALEWFVKITEHPDGTDLIYYPSDNRDDSPEGIVKEIKEWRAANGKPGFKQG
B1: in the data set with Spy 29-124 (wild type) [1], the binding result is reported as “binds”.

B2: wild-type (WT) E. coli Im7 (natural protein, UniProt Q03708 1-87, looked up)
chain: MELKNSISDYTEAEFVQLLKEIEKENVAATDDVLDVLLEHFVKITEHPDGTDLIYYPSDNRDDSPEGIVKEIKEWRAANGKPGFKQG
For B2, the binding result with Spy H96L 29-124 is on record as “binds”.

B3: Im7 L18A L19A L37A (natural protein, E. coli, UniProt Q03708 1-87, looked up)
chain: MELKNSISDYTEAEFVQAAKEIEKENVAATDDVLDVALEHFVKITEHPDGTDLIYYPSDNRDDSPEGIVKEIKEWRAANGKPGFKQG
In the case of B3, in the data set with Spy H96L 29-124, the binding result is reported as “binds”.
Take B4: the binding result in the data set “crystal structure” is given as “binds”.
Take SISDYTEAEFVQLLKEIEKENVAATDDVLDVLLEHFVKIT [Im7 6-45 peptide]: the binding result with Spy 29-124 (wild type) [2] is recorded as “binds”.
Same read-out and setting: to Ac-ELFRQFYQLDAYPSGAWYYVPLGTQYTDAP-NH2 [bovine alpha casein S1 148-177 peptide] belongs “binds”.
